Results as given in the DeepSol protein solubility set.

test: soluble on expression in E. coli; label from the status in PepcDB or PDB records

Sequence	soluble on expression in E. coli
MKGGDRAYTRGPSLGWLFAKCCCCFPCRDAYSHSSSENGGKSESVANLQAQPSLNSIHSSPGPKRSTNTLKKWLTSPVRRLNSGKADGNIKKQKKVRDGRKSFDLGSPKPGDETTPQGDSADEKSKKGWGEDEPDEESHTPLPPPMKIFDNDPTQDEMSSSLLAARQASTEVPTAADLVNAIEKLVKNKLSLEGSSYRGSLKDPAGCLNEGMAPPTPPKNPEEEQKAKALRGRMFVLNELVQTEKDYVKDLGIVVEGFMKRIEEKGVPEDMRGKDKIVFGNIHQIYDWHKDFFLAELEKCIQEQDRLAQLFIKHERKLHIYVWYCQNKPRSEYIVAEYDAYFEEVKQEINQRLTLSDFLIKPIQRITKYQLLLKDFLRYSEKAGLECSDIEKAVELMCLVPKRCNDMMNLGRLQGFEGTLTAQGKLLQQDTFYVIELDAGMQSRTKERRVFLFEQIVIFSELLRKGSLTPGYMFKRSIKMNYLVLEENVDNDPCKFALMNRETSERVVLQAANADIQQAWVQDINQVLETQRDFLNALQSPIEYQRKERSTAVMRSQPARLPQASPRPYSSVPAGSEKPPKGSSYNPPLPPLKISTSNGSPGFEYHQPGDKFEASKQNDLGGCNGTSSMAVIKDYYALKENEICVSQGEVVQVLAVNQQNMCLVYQPASDHSPAAEGWVPGSILAPLTKATAAESSDGSIKKSCSWHTLRMRKRAEVENTGKNEATGPRKPKDILGNKVSVKETNSSEESECDDLDPNTSMGILNPNFIQEVAPEFLVPLVDVTCLLGDTVILQCKVCGRPKPTITWKGPDQNILDTDNSSATYTVSSCDSGEITLKICNLMPQDSGIYTCIATNDHGTTSTSATVKVQGVPAAPNRPIAQERSCTSVILRWLPPSSTGNCTISGYTVEYREEGSQIWQQSVASTLDTYLVIEDLSPGCPYQFRVSASNPWGISLPSEPSEFVRLPEYDAAADGATISWKENFDSAYTELNEIGRGRFSIVKKCIHKATRKDVAVKFVSKKMKKKEQAAHEAALLQHLQHPQYITLHDTYESPTSYILILELMDDGRLLDYLMNHDELMEEKVAFYIRDIMEALQYLHNCRVAHLDIKPENLLIDLRIPVPRVKLIDLEDAVQISGHFHIHHLLGNPEFAAPEVIQGIPVSLGTDIWSIGVLTYVMLSGVSPFLDESKEETCINVCRVDFSFPHEYFCGVSNAARDFINVILQEDFRRRPTAATCLQHPWLQPHNGSYSKIPLDTSRLACFIERRKHQNDVRPIPNVKSYIVNRVNQGT	soluble
MKIAHISDLHVKCEWYEDRLGNNLVKYLNAQKPDLLIITGDLTDYGYYAEYKRAYSFLELIEVEKRVVVPGNHDARNEGYELFEEFFGTRMPYYEDEYMVIIGMDSSLPDREEGHIGRKGYKFLRETLKDKGDKLKIVALHHHVVPIPATGSDLAILTDAGNLMKVVDELGVELVLTGHKHKAWVWKLNETYYVTAGTATTRRLKAKDYPSFYMLYLEDEKNIRMEKVNTETLKVEEVYTLNFEEGKER	not soluble
MKIAIEGCMHGDLDNVYKTIQHYEQIHNTKVDLLLCCGDFQAVRNEKDMDSLNVPRKYREMKSFWKYYSGQEVAPIPTIFIGGNHEASNYLWELYYGGWAATNIYFLGFAGVVKFGNVRIGGLSGIYNERHYRSGHFERPPYNESTIRSVYHVRDYDVQKLMQLEEPLDIFLSHDWPVGITDYGDSESLMRQKPYFRQEIEEKTLGSKPAALLLEKLKPQYWFSAHLHCKFAAAVQHGNDGSVTKFLALDKCLPGKKFLQIIEIESEPGPFEVLYDEEWLAITRKFNSIFPLTRRYTNVRYTIPNKLPTKKWERTDIPASLAPSDTYSVKLFIYSFYLPIVMKLHQAPMTEMFSAVSRIKHVLLCIADLPTYDSEEIPIDDIDEIEEMEEAKADDHTRDDA	soluble
MKIAITGATGFVGQRLVERLQAEGHELRILSQRPTVAQQLTGCQVFDTATETSWLAALEGADAVVNLAGEPIAEQRWTPAQKQRLKNSRVQTTRALVTAITAATQKPQVLVTASAIGYYGTSETAQFTEESAAGQDYLAEICQAWEQEAQAVTVSGTRLVTLRIGIVVGPGGAIGKMLGPFKLFAGGPIGSGRQWVSWIQREDLVSLILEAIANPSYQGTYNATAPQAVRMADLSATLGEVLQRPSWLPVPAFALEALLGEGALLVLEGQQVLPKRLEAAGFQFRYPDLKSALQQFLPLEHHHHHH	not soluble
MKIATYNVRVDTEYDQDWQWSFRKEAVCQLINFHDWSLCCIQEVRPNQVRDLKAYTTFTCLSAEREGDGQGEGLAILYNEQKVQAIDTGYFWLSETPQQPSIHPEAGCPRIALWGLFKETTQNTPFLVINVHLDHISAHARLAGMTVILEELHDKIAQYPTLLMGDFNAESGEEVHQLVQKKFQDSKNLATHYGPRGTFQNFTYTKPWAELEEIDYIYVKGWQVQQTASLTDSIDGRFPSDHFPLEAEVAGENLYFQ	soluble
MKIEEGKVVIWHAMQPNELEVFQSLAEEYMALCPEVEIVFEQKPNLEDALKAAIPTGQGPDLFIWAHDWIGKFAEAGLLEPIDEYVTEDLLNEFAPMAQDAMQYKGHYYALPFAAETVAIIYNKEMVSEPPKTFDEMKAIMEKYYDPANEKYGIAWPINAYFISAIAQAFGGYYFDDKTEQPGLDKPETIEGFKFFFTEIWPYMAPTGDYNTQQSIFLEGRAPMMVNGPWSINDVKKAGINFGVVPLPPIIKDGKEYWPRPYGGVKLIYFAAGIKNKDAAWKFAKWLTTSEESIKTLALELGYIPVLTKVLDDPEIKNDPVIYGFGQAVQHAYLMPKSPKMSAVWGGVDGAINEILQDPQNADIEGILKKYQQEILNNMQG	soluble
MKIEEVRFGLVKIDGKEFDHDIVIYPSGRIERRMKEISKKKHGTSHKLDPEELEKYLVEDFDVLLVGTGIYGMLSLLPESKKLVEDKEVIEKPTKEALKLLEELWGKKRILAIIHVTC	soluble
MKIFIVGSTGRVGKSLLKSLSTTDYQIYAGARKVEQVPQYNNVKAVHFDVDWTPEEMAKQLHGMDAIINVSGSGGKSLLKVDLYGAVKLMQAAEKAEVKRFILLSTIFSLQPEKWIGAGFDALKDYYIAKHFADLYLTKETNLDYTIIQPGALTEEEATGLIDINDEVSASNTIGDVADTIKELVMTDHSIGKVISMHNGKTAIKEALESLLEHHHHHH	soluble
MKIGFIGVGKMASAIITGLKKTDFELIISDSSLKAGQDKAEALGVAVAQSHQELVDEVDLLVLGVKPQVLASVLNPLILTKPILSMAAGTSLEYLDKLSQADLPIIRIMPNLNAKILQSSTAICRNDKVSDQLFAIAKQITDSFGTTFEIAEKDFDTFTALAGSSPAYIALFIEAMSKAGLKHGFPKDLAFKIVSQTVLATTSNLIQGQEKPNDLIDKVSSPGGTTIAGLLDLEKTGFTASTISAIDATIDKSKNMLEHHHHHH	not soluble
MKIGVFDSGVGGLSVLKSLYEARLFDEIIYYGDTARVPYGVKDKDTIIKFCLEALDFFEQFQIDMLIIACNTASAYALDALRAKAHFPVYGVIDAGVEATIKALHDKNKEILVIATKATIKSEEYQKRLLSQGYTNINALATGLFVPMVEEGIFEGDFLQSAMEYYFKNITTPDALILACTHFPLLGRSLSKYFGDKTKLIHSGDAIVEFLKERENIDLKNHKAKLHFYASSDVESLKNTAKIWLNLLRK	not soluble
MKIGYLGPRGTFTEMAVQTLFDDKNVLKPYRTIPDCMDSVANGDMDAAVVPVENAIEGSVNVTLDYLIHKQRLEIVADIVVPISQHFLVHPNQRDNEIKKILSHPHAVAQCHEFLRSSYPGVEIEYMTSTAAAAQWVADHPNEPVAAIANEQAATSYQLDMLEKDIHDYDENRTRFAVLAKGKLSLPPYQVEPYTKKTTMMVTLSSDFSGALHQVLSAFAWRKLNLTKIESRPMKTGLGNYFFIIDVDCEADDVLIPGVMQELEALGCGVELLGSYPCFFHTSLKLTEASSV	not soluble
MKIIGFACQWCAYQAADLAGSLKMKYPESIRLLRVPCSGRVNAEFILKALLSGADGVFVAGCPISECHYRSGNRIAKTKVALLKRLLPEFGLESGRVEFLQVSSADARKFVEFAKEFDERIRKLGPNPLRRDER	not soluble
MKIIGSMGKKTENLKIDAKKSFLKRIAKNVKVSEGERAVEDILRCIYRNQPISTKKIGQYVKLPLPIVSKVRSILERESLLKRDDKGAVLSKKGIDFVENELGLKLKSDMKCPVCSGRNIVFDEKFEKILKKHKTYAKLRPQVNTMIDQSFATPETATARAAIMADRGDLEGKRVLFVGDDDLASIPTAMTGLCSEVVVLDIDDRLLKLISEVSKKENLNIRTVKWDFKNELPSEFVNKFDTIFTDPPYTLNGAVLFMSRGIEALGDNGILYLAFSHKPVEEYIELQKSINNMNFLIYELIPGFNFYEGTEIIGNTTFLARLVGKNLKKIEVNSEKIYTGELKPTLRYYQCMNCKKIHEVGNKVKRIEDLTCECGGKKFSMIKRAKVKQK	not soluble
MKIIITGEPGVGKTTLVKKIVERLGKRAIGFWTEEVRDPETKKRTGFRIITTEGKKKIFSSKFFTSKKLVGSYGVNVQYFEELAIPILERAYREAKKDRRKVIIIDEIGKMELFSKKFRDLVRQIMHDPNVNVVATIPIRDVHPLVKEIRRLPGAVLIELTPENRDVILEDILSLLERLEHHHHHH	not soluble
MKILLYFEGEKILAKSGIGRALDHQKRALSEVGIEYTLDADCSDYDILHINTYGVNSHRMVRKARKLGKKVIYHAHSTEEDFRNSFIGSNQLAPLVKKYLISLYSKADHLITPTPYSKTLLEGYGIKVPISAISNGIDLSRFYPSEEKEQKFREYFKIDEEKKVIICVGLFFERKGITDFIEVARQLPEYQFIWFGDTPMYSIPKNIRQLVKEDHPENVIFPGYIKGDVIEGAYAAANLFFFPSREETEGIVVLEALASQQQVLVRDIPVYQGWLVANENCYMGHSIEEFKKYIEGLLEGKIPSTREAGYQVAEQRSIKQIGYELKEVYETVLS	not soluble
MKILPLALFIIPFLAGCGANNTPPQTPIPGEKTSAKLRTLETGAAAIQSRPPVDAISTYLDGFHFYSGDKNGQMEAHHYVTVLNEDVMQAVIYDGNTKNARLMGVEYIISERLFKTLPPEEKKLWHSHQYEVKSGSLVAPGLPQVADKALMSKIVNTYGKTWHTWHTDRDKTLPMGIPALMMGFTGDGQLDPALLADRDRRLGIDTQAIKRERQDLPEHPVVKGANAWEQGEVIQLQRVQGSGEHGRGDTAHFGTSEQSRQ	not soluble
MKILWIDLNSSYAHSSLALPALHAQIMTDPSIEWEIVSATINENTGMIVDEIYRHRPDILAATTWLFNHEQLMHVASRVKALLPEACLVLGGPEFLGDNEEFLRKNPFVDCVFRGEGEEVFPQWLTCWNHPEQWHTVPGLCYLTPNKEYKDNGIARVLNFAGLVPPEQSRFFNWSKPFVQLETTRGCFNTCAFCVSGGEKPVRTLSIESIRERLQLIHAHGIKNVRVLDRTFNYNPRRAKELLRLFLEFHPDIRFHLEIHPALLSEELKEELSLLPKGLLHLEAGIQSLREPVLEKSRRMGKLSDALDGLRFLCALPNMETHADLIAGLPLYHLHEIFEDVRTLAGYAAGEIQLESLKLLPGTEMRRRAEELGIKYSPLPPYEVLQTHEISVSELQTARQLSRLLDGFYNTPAWQALTRELILNDEQFLHRFLAYLTKANLIDQPMSLEKRGLILYEFCKQNYPEYQIQAAIAWIEAGMSLKKLPAEKVWTKRQIPPATWNIIYGEYKESLRLCFLPADEKGEHGYWFGFESEIQKASPVFKART	not soluble
MKIMIIGATGMAGQALVTTALNRGHQVVAVARSAEKLATLPSNPNLTSIVRDAFNLTTTDLSAVDAVVDAFATAPDHAYLHVDLATHLISQLRETTTPRVAFILGAGSLTTGDDAHLFVHDLEQDPHAASFISVPQNQLKELTFLRDVDNVNWFGVSPAADFHPGEAQPALLGTDTLLFNDQQQSGTSAGTMAVAILDELENPKHHQTRFTVADKLEHHHHHH	soluble
